Experimental data: patent US20240301038A1 (ATRECA, published 2024)

B1: AB-009270 (antibody, V domains shown)
VH: QMQLVQSGPEVKKPGTSVKVSCKASGFTFTSSAMQWVRQARGQRLEWIGWIVVGSGNTNYAQKFQERVTITRDMSTSTAYMELSSLRSEDTAVYYCAVNYCSSTSCYDAFDIWGQGTMVTVSS
VL: not shown
B2: AB-009760 (antibody, V domains shown)
VH: EVQLVQSGAEVKKPGESLKISCKGSGYSFTSYWIGWVRQMPGKGLEWMGIIYPGDSDTRYSPSFQGQVTISADKSISTAYLQWSSLKASDTAMYYCARSRSSDYFDYWGQGTLVTVSS
VL: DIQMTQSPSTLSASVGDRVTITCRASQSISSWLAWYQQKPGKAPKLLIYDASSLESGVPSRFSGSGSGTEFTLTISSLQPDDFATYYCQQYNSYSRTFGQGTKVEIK

Biological target: SARS-CoV-2 Spike S1 subunit (Sino Biological) (SARS-CoV-2, UniProt P0DTC2 16-685)

Binder | koff [s⁻¹] | kon [M⁻¹ s⁻¹]
B1 | 0.000208 | 69000
B2 |  | 64100
